Laboratory results reported in paper PMC10512467, “Alternative splicing of a single exon causes a major impact on the affinity of Caenorhabditis elegans tropomyosin isoforms for actin filaments” (Frontiers in Cell and Developmental Biology, 2023).

Molecular target: F-actin (actin purified from rabbit muscle acetone powder) (rabbit, UniProt P68135 1-377)
Assay: co-sedimentation; F-actin co-sedimentation (supernatant depletion): constant 2 uM LEV-11 isoform with 0-60 uM F-actin, 1 h, in F-buffer (0.1 M KCl, 2 mM MgCl2, 20 mM HEPES-KOH, pH 7.5, 1 mM dithiothreitol); 200,000 x g for 20 min; bound portion from the depletion of the supernatant, SDS-PAGE densitometry
Conditions: both partners purified

B1: LEV-11T (C. elegans low-molecular-weight tropomyosin isoform, exons E3b-E4a-E5a-E6-E7b-E8-E9b), recombinant with extra Ala-Ser after the initiator Met (natural protein)
chain: MASSKVNKEGAQQTSLLDVLKKKMRQAREEAEAAKDEADEVKRQLEEERKKREDAEAEVAALNRRIVLVEEDLERTEDRLKTATSKLEQATKAADEADRARKSMETRSQQDEERANFLETQVDEAKVIAEDADRKYEEVARKLAMVEADLERAEERAEAGENKIVELEEELRVVGNNLKSLEVSEEKALQREDSYEEQIRTVSSRLKEAETRAEFAERSVQKLQKEVDRLEELRDAEVLKARQLQDELDHMVQELNSV
Which Kd does the source give for B1 here?
The Kd was 3.7 µM.
